T1: murine CDH3 on cells (mouse, UniProt P10287 100-822)
T1 construct: negative control; also called mouse CDH3
T1 sequence: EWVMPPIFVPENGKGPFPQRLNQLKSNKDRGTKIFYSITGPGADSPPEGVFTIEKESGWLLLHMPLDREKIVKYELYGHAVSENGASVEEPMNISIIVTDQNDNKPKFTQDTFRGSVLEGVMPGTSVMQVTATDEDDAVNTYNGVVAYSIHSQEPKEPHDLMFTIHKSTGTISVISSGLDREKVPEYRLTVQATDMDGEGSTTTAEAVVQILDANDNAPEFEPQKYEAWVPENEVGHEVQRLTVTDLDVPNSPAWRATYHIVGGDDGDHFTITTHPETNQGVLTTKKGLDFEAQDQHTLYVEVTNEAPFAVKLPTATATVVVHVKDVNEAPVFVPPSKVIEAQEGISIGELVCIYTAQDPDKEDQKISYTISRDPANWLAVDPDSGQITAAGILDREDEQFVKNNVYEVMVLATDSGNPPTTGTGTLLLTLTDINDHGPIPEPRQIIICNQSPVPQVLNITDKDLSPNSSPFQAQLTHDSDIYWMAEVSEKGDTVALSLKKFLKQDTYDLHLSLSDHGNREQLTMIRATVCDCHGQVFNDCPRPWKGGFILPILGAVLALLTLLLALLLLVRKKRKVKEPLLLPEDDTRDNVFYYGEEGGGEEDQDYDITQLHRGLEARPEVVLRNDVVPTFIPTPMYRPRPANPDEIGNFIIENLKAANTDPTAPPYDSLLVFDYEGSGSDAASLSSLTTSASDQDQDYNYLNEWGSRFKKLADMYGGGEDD

T2: Hu CDH3 Dom2 mu (aa 216-327), human/mouse chimeric CDH3 on CHO cells (chimeric hu/mu)
T2 chain: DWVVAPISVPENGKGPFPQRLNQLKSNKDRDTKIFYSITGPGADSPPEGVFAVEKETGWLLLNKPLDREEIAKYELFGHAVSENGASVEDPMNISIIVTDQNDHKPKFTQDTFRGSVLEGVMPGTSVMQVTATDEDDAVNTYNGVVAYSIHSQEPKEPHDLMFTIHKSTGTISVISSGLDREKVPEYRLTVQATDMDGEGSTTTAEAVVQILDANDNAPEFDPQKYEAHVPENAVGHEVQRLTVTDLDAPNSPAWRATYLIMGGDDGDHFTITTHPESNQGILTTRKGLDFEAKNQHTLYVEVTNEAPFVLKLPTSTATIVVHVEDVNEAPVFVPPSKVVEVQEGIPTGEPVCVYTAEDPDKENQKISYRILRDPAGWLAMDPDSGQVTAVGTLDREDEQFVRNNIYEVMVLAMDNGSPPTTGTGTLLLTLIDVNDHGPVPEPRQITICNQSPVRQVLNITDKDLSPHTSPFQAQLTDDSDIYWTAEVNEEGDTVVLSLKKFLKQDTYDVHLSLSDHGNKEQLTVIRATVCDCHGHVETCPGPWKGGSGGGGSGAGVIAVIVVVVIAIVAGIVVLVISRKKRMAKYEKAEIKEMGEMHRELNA

T3: Hu CDH3 Dom1C mu (aa 180-215), human/mouse chimeric CDH3 on CHO cells (chimeric hu/mu, UniProt P22223 108-681 (human entry))
T3 chain: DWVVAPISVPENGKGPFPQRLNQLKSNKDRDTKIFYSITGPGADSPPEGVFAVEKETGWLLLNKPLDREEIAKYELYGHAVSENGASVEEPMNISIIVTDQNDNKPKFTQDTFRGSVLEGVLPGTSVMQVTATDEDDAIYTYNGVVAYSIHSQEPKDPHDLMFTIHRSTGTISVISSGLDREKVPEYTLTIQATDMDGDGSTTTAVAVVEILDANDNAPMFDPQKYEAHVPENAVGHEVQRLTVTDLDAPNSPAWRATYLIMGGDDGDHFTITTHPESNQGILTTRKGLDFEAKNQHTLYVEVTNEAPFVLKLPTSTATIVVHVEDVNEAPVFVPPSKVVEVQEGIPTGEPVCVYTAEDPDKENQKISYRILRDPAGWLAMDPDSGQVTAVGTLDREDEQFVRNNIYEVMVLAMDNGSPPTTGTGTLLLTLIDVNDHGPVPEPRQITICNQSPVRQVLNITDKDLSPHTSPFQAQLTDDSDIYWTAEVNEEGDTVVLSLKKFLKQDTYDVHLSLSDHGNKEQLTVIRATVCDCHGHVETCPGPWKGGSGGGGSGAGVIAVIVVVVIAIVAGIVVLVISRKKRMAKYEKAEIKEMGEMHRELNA


How the values were obtained:
[1] = target: T1, murine CDH3 on cells; test: flow cytometry, transfected CHO cells; crude periplasmic scFv extract; anti-FLAG M2 + anti-mouse IgG Fcγ-PE
Method: (§1) Cells transfected with human or murine CDH3, or with the chimeric human/mouse CDH3 molecules (see Example 1) were stained with crude, undiluted periplasmic extract containing scFv binding to human/macaque CDH3. […] As negative control, cells were incubated with PBS/2% FCS instead of the periplasmic extract. The samples were measured by flow cytometry.

[2] = target: Hu CDH3 Dom3 mu (aa 328-440), human/mouse chimeric CDH3 on CHO cells (chimeric hu/mu); test: flow cytometry, transfected CHO cells; crude undiluted periplasmic scFv extract; anti-FLAG M2 + anti-mouse IgG Fcγ-PE; control PBS/2% FCS
Method: as §1

[3] = target: T4, human CDH3 (P-cadherin) on cells (human, UniProt P22223 108-829); test: as above
T4 construct: The entry includes signal peptide and pro-peptide; extracellular domain D1 starts at aa 108; also called hu CDH3; hu CDH-3
Method: as §1

[4] = target: T2, Hu CDH3 Dom2 mu (aa 216-327), …; test: as above
Method: as §1

[5] = target: T3, Hu CDH3 Dom1C mu (aa 180-215), …; test: as above
Method: as §1

Row | binding result [1] | binding result [2] | binding result [3] | binding result [4] | binding result [5] | Binder
1 | no binding | binds | binds | binds | binds | CDH3-9 (scFv, Used as crude periplasmic extract and detected through a FLAG tag; also called CDH3-9 scFv) scFv: EVQLVEESGGDLVKPGGSLKLSCAASGFTFSTYGMSWVRQTPDKRLEWVATISSGGHYSYYPDSVKGRFTISRDNAKNTLYLQMSSLKSEDTAMYYCASYYYGSPFAYWGQGTTVTVSSGGGGSGGGGSGGGGSELQMTQSPSSLSASLGERVSLTCRASQDIGSSLNWLQQKPDGTIKRLIYDTSSLDSGVPKRFSGSRSGSDYSLTISSLESEDFGDYYCVQYGSSPLTFGAGTKLEIK
2 | no binding | binds | binds | binds | binds | CDH3-8 (scFv, Used as crude periplasmic extract and detected through a FLAG tag; also called CDH3-8 scFv) scFv: EVQLVEQSGAEVVKPGASVKITCKASGYAFSSYWMNWVRQRPGKGLEWIGHIYPGDGDTNYNGKFKGKVTLTADKSSNTAYMQLSDLTPEDSAVYFCARDRGSFGAWFAYWGQGTTVTVSSGGGGSGGGGSGGGGSELVMTQTPSSLSASLGDRVTISCRASQDISNYLNWYQQKPDGTVKLLIYYTSRLHSGVPSRFSGSGSGTDYSLTISNLEQEDIATYFCQQGNRNPPTFGGGTKLEIK
3 | no binding | binds | binds | binds | binds | CDH3-10 scFv (scFv) scFv: EVQLVEESGGGLVKPGGSLKLSCAASGFTFSSYAMSWVRQTPDKRLEWVATISSGGHYTYYPDSVKGRFTISRDNAKNTLYLQMSSLKSEDTAMYYCASYYYGIPFGYWGQGTTVTVSSGGGGSGGGGSGGGGSELVMTQSPSSLSASLGEGVSLTCRASQDIGINLIWLRQEPDGTIKRLIYDTSSLDSGVPKRFSGSRSGSDYSLTISSLESEDFVHYYCLQYGSSPLTFGAGTKLEIK
